Reference: the DeepSol protein solubility set

Test: soluble on expression in E. coli; label from the status in PepcDB or PDB records

Row | Sequence | soluble on expression in E. coli
1 | MIVAIIDGYTDEPAGLGVPPYLGLYPRYAYGAIKKARRDANIFYLTIDDLRATFEGEQGIKTKNKTPNFPKVKEILEKAEVIVFIGGLHTPGKYLSAVPGSVEEVSKFISHYNGVKVLGGPAFMGSAKIGGVKVTTKELRFAEEVFDYVVYGDIEAFLFDYFSGRELDPFRFRDYEELQPYALLGAEVVKQFPGYPEFVLIEIETQRGCPKAMGIGGCSFCTEPVRYRVVENRPQEYVAQEVKVFYNLGIRHFRIGRQSCIFSYMAKPNGRVPIPNPEEVEKLFKAVRLAAPNVKTLHVDNANPAVIANYPEESKRIAKAIIRYGTPGNVVAFGLETADPKVARINNLNATPEETYEAVKIINEVGGKRGYNGLPWLLPGINIIFGLPGETKRTYELTYEFLKKILDDGLMVRRINIRQVVVFPGTPLWNMRDKVKTEKHKKLIEHYRHKIRHEIDLPMLKRIVPVGTILRDVRAEIYDGELTFGRQFGSYPLIVGIPKRVELDRYYDVMIVDHGLRSVTGIPVPIDVNGESSKVLRWLPGIGKKTLARILAKRPFKSEEEFLSLLPEDVKKMYKGKIKV | soluble
2 | MINEHYIPQAVILANGEYPAHELPLRLLAEAQFVVCCDGAANEYISRGHTPDVIIGDGDSLLPEYKKRFSSIILQISDQETNDQTKAVHYLQSKGIRKIAIVGATGKREDHTLGNISLLVEYMRSGMEVRTVTDYGTFIPVSDTQSFASYPGQQVSIINFGAKGLKAEGLFYPLSDFTNWWQGTLNEAIADEFTIHCTGEYLVFLAY | soluble
3 | MFKSVAKLGKSPIFYLNSQRLIHIKTLTTPNENALKFLSTDGEMLQTRGSKSIVIKNTDENLINHSKLAQQIFLQCPGVESLMIGDDFLTINKDRMVHWNSIKPEIIDLLTKQLAYGEDVISKEFHAVQEEEGEGGYKINMPKFELTEEDEEVSELIEELIDTRIRPAILEDGGDIDYRGWDPKTGTVYLRLQGACTSCSSSEVTLKYGIESMLKHYVDEVKEVIQIMDPEQEIALKEFDKLEKKLESSKNTSHEK | soluble
4 | AGKTLYDKLWEAHEVKRRDDGSSLIYIDRHIIHEVTSPQAFEGLRLANRKPWRIDANIATPDHNVPTTPERKGGIEAIVDQVSRLQVQTLDENCDEYGIVEFKMNDERQGIVHVISPEQGATLPGMTVVCGDSHTSTHGAFGALAHGIGTSEVEHVLATQCLVAKKMKN | not soluble
5 | MRVIVTEYQPAWVEQFEEEAQALKQILKENCLKVEHIGSTSVPNLAAKPIIDFLVIVEEIEKVDLLQWEFERIGYEYMGEFGLSGRRYLRKGPIKRTHHVHIYQFDNTQEILRHLAFRNYLRENPAIATTYGTLKKQLAQAHPDSIDKYMDGKDAFIKKIEKEALKKYWE | soluble
6 | LRKQVELLFNTRYAKAIGISEPVKVPYSKFLMHPEELFVVGLPEGISLRRPNCFGIAKLRKILEASNSIQFVIKRPELLTEGVKEP | soluble
7 | MKLGYSLSKSNAKNFKFYINGSAMGYKNIIINGAKSWNASPYLNTVSKGRDANPHFIISSSTIDRGATVAVCETWAYKGSKLVAKNEITTFKAFRSLSVGDKTETIAHEFGHGLGLGHVKTKNAIMLDVGFTKKIKPQRDDLNGIKAIYKLEHHHHHH | not soluble
8 | MKFTSATGSGQQGSSSGTTNSAGNPDSLKQDKVDKSGDSVTVAETTSGDNLTNYTNLPPNLTPTADPNALSFTNKNNAQRAQLFLRALLGSIPVLVNKSGQDDLEHHHHHH | not soluble
9 | MSLLLEILDLSRSTYYYQVKRLAQGDKDIELKHVIREIYDEHKGNYGYRRIHMELRNRGFVVNHKKVQRLMKVMGLAARIRRKRKYSSYKGEVGKKADNLIKRHFEGSKPYEKCYTDVTEFALPEGKLYLSPVFDSYNCEIIDFTLSRSPNLKQAQTMLEKTFPADSYSGTILHSDQGWQYQHQSYHDFLESKGILPSMSRKGNSPDNGMMDSFFGILKSEMFYGLETTYQSLDKLEEAITDYIFYYNNKRIKAKLKGLSPVQYRTKSFQEGHHHHHH | not soluble
10 | MTTYTSIANVIKERRSVRTFTDKAVEKDLLIELLNDATWAPNHKHREPWNCKLYIGEGRKKLVDAVLNSFTEEERAKRGKILSDRFLSTPAQIVVYMNEDPRQIQRDEDYAATCAFMQNFQLLAWERGLGCVWKSGGLNYNPLFIEGIGLTRGQRIVGILHIGYFDKAPEGKARTPITEKMEIIEG | soluble
11 | MAHHHHHHMGLEDIDECLPPSLGGKGQVLKGRPVNNGDGTSGSCAKVNFGELFGFPVASSGGAVMPSASAGVGSVQAGSKTECQEPEEQWIWVSAEGQKSEASPVDNMAGRSNDPLDAFFTSHTPSLQPSSSMKREEKPFTDLLDFSKPAERVRYSDEHSLLEAFENQSKGRRADVRDDPSLEDLSHGSSNNAVRARLLKIMNYYDILGVTRDATEEQIRQRYKQKALELHPDRVGRDQTPEEVELFKVMTKANEVLCDPEERAKYDEELRCSNVGADDEAQWLFHLHLR | soluble
12 | SADDFGFFSSSESGAPEAAEEDPAAAFLAQQESEIAGIENDEGFGAPAGSHAAPAQPGPTSGAGSEDMGTTVNGDVFQEANGPADGYAAIAQADRLTQEPESIRKWREEQRKRLQELDAASKVTEQEWREKAKKDLEEWNQRQSEQVEKNKINNRASEEAFVKESKEETPGTEWEKVAQLCDFNPKSSKQCKDVSRLRSVLMSLKQTPLSR | soluble
13 | MSLKLVEILVLGQVLRLNVPIEQEELLRQAARNLDILVSEMKEKTGLIQLDRVLSIVALNLSFELSQEKNKTAKIEEVLRTGIQQLDHSLENIRVTKEPH | soluble
14 | MTKPMIQIALDQTNLTDAVAVASNVASYVDVIEVGTILAFAEGMKAVSTLRHNHPNHILVCDMKTTDGGAILSRMAFEAGADWITVSAAAHIATIAACKKVADELNGEIQIEIYGNWTMQDAKAWVDLGITQAIYHRSRDAELAGIGWTTDDLDKMRQLSALGIELSITGGIVPEDIYLFEGIKTKTFIAGRALAGAEGQQTAAALREQIDRFWP | not soluble
15 | SEQETRGANEAIDFNDELRNRREKLAALRQQGVAFPNDFRRDHTSDQLHEEFDAKDNQELESLNIEVSVAGRMMTRRIMGKASFVTLQDVGGRIQLYVARDSLPEGVYNDQFKKWDLGDIIGARGTLFKTQTGELSIHCTELRLLTKALRPLPDKFHGLQDQEVRYRQRYLDLIANDKSRQTFVVRSKILAAIRQFMVARGFMEVETPMMQVIPGGASARPFITHHNALDLDMYLRIAPELYLKRLVVGGFERVFEINRNFRNEGISVRHNPEFTMMELYMAYADYHDLIELTESLFRTLAQEVLGTTKVTYGEHVFDFGKPFEKLTMREAIKKYRPETDMADLDNFDAAKALAESIGITVEKSWGLGRIVTEIFDEVAEAHLIQPTFITEYPAEVSPLARRNDVNPEITDRFEFFIGGREIGNGFSELNDAEDQAERFQEQVNAKAAGDDEAMFYDEDYVTALEYGLPPTAGLGIGIDRMIMLFTNSHTIRDVILFPAMRPQK | soluble
16 | MKKLIVASLSLTFMLGGCASMNKEGVGTITGGVVGGLLGSQFGGGSGKVAAAGAGALLGAYLGGQIGKTMDKVDRLEMQRALETAPTGKAVAWSNPDTGYRYTVQPTRTYYNAQQPCREYITKAMIGGKTQQIYGKACRQADGSWRVVNLEHHHHHH | not soluble
17 | MGGSHHHHHHGMASALKEKKSQETEVTSTLEQQKICLVLESCLKKNSDEEGSQEKGGDDSQQKFIAHVPVPSQQEIEEALVRRKKMELLQKYASETLQAQSEEARRLLGY | not soluble
18 | MGSDKIHHHHHHMSNQYHNFNSQIESHILFYGHQKCKPDEYFDGTNLRKNDILYYVLDGKGTFNSSGHHVAKLAKGDLFLVPRSRTCYFEADHDNPWEYFWIGLSGAGTNEMIKASNLPNKNFLRQIQKTEFFETLKELYSTLNEDSSLLNNVKIASLTYQLFYHLIDEFPNHPSIRKTPKIDQYQIAIDYLNKNYTDPTCNIVELCNRLGVSRSFLYSLFRKNTKISPQKYLMQLRMEAAKKELLNTTHNLKEIARKVGYGDEFTFSKAFKRYSGVSPNVFRGK | not soluble
19 | MFGKQLFEEVGSKISETIANSPAKDVEKNIKAMLGGAFNRMDLVTREEFDIQQQVLIKTRTKLAALEARLEKLEAAQNPERAALEAAEAAAE | not soluble
20 | MSLDAPYFSPRRLGHVNLIVRDTDASMRFYQDVVGFEEVYRVPAIGGGFLSNGNTHHDVGMVQSSGPSGKGRPPGLNHLAFELETEVALVEGYERSRQDGLAFERTLDHDIAHSAYCADPDGNSCELYADVVREWRTARTGEVTKPKPAWWPGKTPPNPHRNYHAEPQLRQVAHAAFHPLRTQHATLVVADLRESIAFYTRRIGLALQAQGDGYALLGGRCGRRDVALVQARGQLSPGYHHVGLEVADAGELLQAAQRWREQGGQVERLIEHPLRTAVYITDPDGLLLQFFVDHAADHAAWRHLDREQALWIVEGHHHHHH | not soluble
21 | MKSADLIIIGGGMVGLALAGLLKDSPCQIKIIEKSAPKTQKYYANRVSAINTASEKMLQQLGVFEHIPTDAYTDYQKIIVSEKDSFAKIEFDNNDLAIKQLGLTQLGLIIANSQLQQALWQQVSQQKNVEIILSTPKTIGISESGAFLTLENGEMLAGKLVVGADGAHSWLRNQINIPLISQDYQQTALVCCVETAEPHNNIARQIFGPDSILAFLPLADKNQCSIVWSLPPDQANKLTTCDEQQFNQALTIAFDYQLGLVKLQDSRKIYPLTARYARDFAQMRIALIGDAAHTIHPLAGLGVNLGFADAITLAEQIKLHLAAAHDIGEYRHLRYFERTRKTETIKLLAAMEGLKQLFSGNNPLKKLIRGIGLVGTNHFSAIKKRLIEQVVNILEHHHHHH | soluble
22 | MYFVDRKKLEETLSYMEQMLDRYKAEERWDEPLRQLALERIAHIVIEAVLDVGNAMIDGFIMRDPGSYNDIIDILADEQVISPADADRLKAFIAHRKMLVHEYARVDHAKLLADLNEHLPALEAYPKAVRAYLENELGPVSAFRN | soluble
23 | MAELEKTFALIKPDAVRAGKAQEIMQLIELNGFTIIAKQKLQLTRARAEEFYGEHKGKEFFPKLVNFMTSGPIWALVLAKPGAILAWRALMGPTNVFKARAEQPKCLRALYGTDGTQNATHGSDSPISAAREIKFFFPTLSGDPTIYAEPTAAAEYITKRIQPALAKALAALAREKPSADKFEAITFVAGYLLQNNPNKPKVLMPDEWDPALMGDDEDDEADFINARLAAPTGNDGATKAEFDAMVEAAKADTGGAAPAQEFVYPDSKPTTPVVPAPPAPGSKPPSASGARPQSARPTSARPPSASAAPPAPLAPVPPPASSSRPASGSGRPPSATARPPSATPPPPPPAVELEEADDPAQLDEAATKVQAAFRGYQARKEVAVMRSEAQPGEAAAEPEQEAELQPEAEPEPQPEGEQEPQPQASASSSFLPDGVTEEMAAEAATRVQAHMRGHLARKQVAAIKAQQAAPAVAESSEALAEPEPQPEAEAEPQPQASVSSSFLPDGVTEEMAAEAATLVQAHMRGHLARKQVAAIKAQQAAPAVAESSEAQAEAEQTEAEAEPQPDAEAEAGAAEGEAEPEPEAAE | not soluble
24 | MGSDKIHHHHHHAQTPNTLTKKEKKAGWELLFNGKDFSGWRQCNGTAMPANWVIEDNAMKVFTGEGKKPGQGANGDILYQNKKFKNFELSVDWKASKMGNSGIFYYVREVPGKPIYYAAPEVQVLDNVDATDNKLANHLAGSLYDMLPADPKTVNPAGEWNTIVIRVKDGKVTHTQNGKKVVEYTLWSKEWDDLVANSKFKNFPGFTEGISKEGYIGLQDHGYPIWFRNIKIRELK | not soluble
